These results are taken from patent publication US20250304643A1 (BAINAN BIOTECH, published 2025).

T1: human glucose-dependent insulinotropic polypeptide receptor (human, UniProt P48546 22-466)
T1 sequence (looked up): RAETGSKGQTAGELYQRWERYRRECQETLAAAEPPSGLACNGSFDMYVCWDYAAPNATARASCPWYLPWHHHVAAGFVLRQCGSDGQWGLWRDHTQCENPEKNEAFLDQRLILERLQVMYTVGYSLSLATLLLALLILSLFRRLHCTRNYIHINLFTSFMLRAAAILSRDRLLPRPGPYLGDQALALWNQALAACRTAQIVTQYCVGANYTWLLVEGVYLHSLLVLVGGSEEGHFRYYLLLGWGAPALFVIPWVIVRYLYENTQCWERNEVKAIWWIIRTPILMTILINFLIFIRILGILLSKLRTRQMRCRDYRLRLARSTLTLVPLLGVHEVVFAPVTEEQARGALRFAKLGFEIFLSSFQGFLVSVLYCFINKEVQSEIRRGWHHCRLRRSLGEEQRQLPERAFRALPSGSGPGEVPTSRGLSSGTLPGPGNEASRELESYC

B1: Compound no. 18 (peptide)
peptide: {HOOC(CH2)8CO}-H[Aib]DGTFISDYST[Aib]LDNLAARDFINWLIQTKITK-OH
SMILES: CC[C@H](C)[C@H](NC(=O)[C@H](Cc1ccccc1)NC(=O)[C@H](CC(=O)O)NC(=O)[C@H](CCCNC(=N)N)NC(=O)[C@H](C)NC(=O)[C@H](C)NC(=O)[C@H](CC(C)C)NC(=O)[C@H](CC(N)=O)NC(=O)[C@H](CC(=O)O)NC(=O)[C@H](CC(C)C)NC(=O)C(C)(C)NC(=O)[C@@H](NC(=O)[C@H](CO)NC(=O)[C@H](Cc1ccc(O)cc1)NC(=O)[C@H](CC(=O)O)NC(=O)[C@H](CO)NC(=O)[C@@H](NC(=O)[C@H](Cc1ccccc1)NC(=O)[C@@H](NC(=O)CNC(=O)[C@H](CC(=O)O)NC(=O)C(C)(C)NC(=O)[C@H](Cc1c[nH]cn1)NC(=O)CCCCCCCCC(=O)O)[C@@H](C)O)[C@@H](C)CC)[C@@H](C)O)C(=O)N[C@@H](CC(N)=O)C(=O)N[C@@H](Cc1c[nH]c2ccccc12)C(=O)N[C@@H](CC(C)C)C(=O)N[C@H](C(=O)N[C@@H](CCC(N)=O)C(=O)N[C@H](C(=O)N[C@@H](CCCCN)C(=O)N[C@H](C(=O)N[C@H](C(=O)N[C@@H](CCCCN)C(=O)O)[C@@H](C)O)[C@@H](C)CC)[C@@H](C)O)[C@@H](C)CC
B2: Compound no. 12 (peptide)
peptide: H-H[Aib]DGTFISDYSK([γGlu-Palmitoyl])ILDNLAARDFINWLIQTKITK-OH
SMILES: CCCCCCCCCCCCCCCC(=O)N[C@@H](CCC(=O)NCCCC[C@H](NC(=O)[C@H](CO)NC(=O)[C@H](Cc1ccc(O)cc1)NC(=O)[C@H](CC(=O)O)NC(=O)[C@H](CO)NC(=O)[C@@H](NC(=O)[C@H](Cc1ccccc1)NC(=O)[C@@H](NC(=O)CNC(=O)[C@H](CC(=O)O)NC(=O)C(C)(C)NC(=O)[C@@H](N)Cc1c[nH]cn1)[C@@H](C)O)[C@@H](C)CC)C(=O)N[C@H](C(=O)N[C@@H](CC(C)C)C(=O)N[C@@H](CC(=O)O)C(=O)N[C@@H](CC(N)=O)C(=O)N[C@@H](CC(C)C)C(=O)N[C@@H](C)C(=O)N[C@@H](C)C(=O)N[C@@H](CCCNC(=N)N)C(=O)N[C@@H](CC(=O)O)C(=O)N[C@@H](Cc1ccccc1)C(=O)N[C@H](C(=O)N[C@@H](CC(N)=O)C(=O)N[C@@H](Cc1c[nH]c2ccccc12)C(=O)N[C@@H](CC(C)C)C(=O)N[C@H](C(=O)N[C@@H](CCC(N)=O)C(=O)N[C@H](C(=O)N[C@@H](CCCCN)C(=O)N[C@H](C(=O)N[C@H](C(=O)N[C@@H](CCCCN)C(=O)O)[C@@H](C)O)[C@@H](C)CC)[C@@H](C)O)[C@@H](C)CC)[C@@H](C)CC)[C@@H](C)CC)C(=O)O
B3: Compound no. 8 (peptide)
peptide: Palmitoyl-H[Aib]DGTFISDYSTILDNLAARDFIEWLIQTKIT-OH
SMILES: CCCCCCCCCCCCCCCC(=O)N[C@@H](Cc1c[nH]cn1)C(=O)NC(C)(C)C(=O)N[C@@H](CC(=O)O)C(=O)NCC(=O)N[C@H](C(=O)N[C@@H](Cc1ccccc1)C(=O)N[C@H](C(=O)N[C@@H](CO)C(=O)N[C@@H](CC(=O)O)C(=O)N[C@@H](Cc1ccc(O)cc1)C(=O)N[C@@H](CO)C(=O)N[C@H](C(=O)N[C@H](C(=O)N[C@@H](CC(C)C)C(=O)N[C@@H](CC(=O)O)C(=O)N[C@@H](CC(N)=O)C(=O)N[C@@H](CC(C)C)C(=O)N[C@@H](C)C(=O)N[C@@H](C)C(=O)N[C@@H](CCCNC(=N)N)C(=O)N[C@@H](CC(=O)O)C(=O)N[C@@H](Cc1ccccc1)C(=O)N[C@H](C(=O)N[C@@H](CCC(=O)O)C(=O)N[C@@H](Cc1c[nH]c2ccccc12)C(=O)N[C@@H](CC(C)C)C(=O)N[C@H](C(=O)N[C@@H](CCC(N)=O)C(=O)N[C@H](C(=O)N[C@@H](CCCCN)C(=O)N[C@H](C(=O)N[C@H](C(=O)O)[C@@H](C)O)[C@@H](C)CC)[C@@H](C)O)[C@@H](C)CC)[C@@H](C)CC)[C@@H](C)CC)[C@@H](C)O)[C@@H](C)CC)[C@@H](C)O
B4: Compound no. 7 (peptide)
peptide: Palmitoyl-H[Aib]DGTFISDYSTILDNLAARDFIEWLIQTKITK-OH
SMILES: CCCCCCCCCCCCCCCC(=O)N[C@@H](Cc1c[nH]cn1)C(=O)NC(C)(C)C(=O)N[C@@H](CC(=O)O)C(=O)NCC(=O)N[C@H](C(=O)N[C@@H](Cc1ccccc1)C(=O)N[C@H](C(=O)N[C@@H](CO)C(=O)N[C@@H](CC(=O)O)C(=O)N[C@@H](Cc1ccc(O)cc1)C(=O)N[C@@H](CO)C(=O)N[C@H](C(=O)N[C@H](C(=O)N[C@@H](CC(C)C)C(=O)N[C@@H](CC(=O)O)C(=O)N[C@@H](CC(N)=O)C(=O)N[C@@H](CC(C)C)C(=O)N[C@@H](C)C(=O)N[C@@H](C)C(=O)N[C@@H](CCCNC(=N)N)C(=O)N[C@@H](CC(=O)O)C(=O)N[C@@H](Cc1ccccc1)C(=O)N[C@H](C(=O)N[C@@H](CCC(=O)O)C(=O)N[C@@H](Cc1c[nH]c2ccccc12)C(=O)N[C@@H](CC(C)C)C(=O)N[C@H](C(=O)N[C@@H](CCC(N)=O)C(=O)N[C@H](C(=O)N[C@@H](CCCCN)C(=O)N[C@H](C(=O)N[C@H](C(=O)N[C@@H](CCCCN)C(=O)O)[C@@H](C)O)[C@@H](C)CC)[C@@H](C)O)[C@@H](C)CC)[C@@H](C)CC)[C@@H](C)CC)[C@@H](C)O)[C@@H](C)CC)[C@@H](C)O
B5: Compound no. 35 (peptide)
peptide: H[Aib]DGTFISDYSK([γGlu-Palmitoyl])[Aib]LDNLAARDFINWLIQTKITK-OH
modifications: N-terminus assumed
SMILES: CCCCCCCCCCCCCCCC(=O)N[C@@H](CCC(=O)NCCCC[C@H](NC(=O)[C@H](CO)NC(=O)[C@H](Cc1ccc(O)cc1)NC(=O)[C@H](CC(=O)O)NC(=O)[C@H](CO)NC(=O)[C@@H](NC(=O)[C@H](Cc1ccccc1)NC(=O)[C@@H](NC(=O)CNC(=O)[C@H](CC(=O)O)NC(=O)C(C)(C)NC(=O)[C@@H](N)Cc1c[nH]cn1)[C@@H](C)O)[C@@H](C)CC)C(=O)NC(C)(C)C(=O)N[C@@H](CC(C)C)C(=O)N[C@@H](CC(=O)O)C(=O)N[C@@H](CC(N)=O)C(=O)N[C@@H](CC(C)C)C(=O)N[C@@H](C)C(=O)N[C@@H](C)C(=O)N[C@@H](CCCNC(=N)N)C(=O)N[C@@H](CC(=O)O)C(=O)N[C@@H](Cc1ccccc1)C(=O)N[C@H](C(=O)N[C@@H](CC(N)=O)C(=O)N[C@@H](Cc1c[nH]c2ccccc12)C(=O)N[C@@H](CC(C)C)C(=O)N[C@H](C(=O)N[C@@H](CCC(N)=O)C(=O)N[C@H](C(=O)N[C@@H](CCCCN)C(=O)N[C@H](C(=O)N[C@H](C(=O)N[C@@H](CCCCN)C(=O)O)[C@@H](C)O)[C@@H](C)CC)[C@@H](C)O)[C@@H](C)CC)[C@@H](C)CC)C(=O)O

*1 amine or outer side, *2 acyl side, *3 side chain or, on linkers, in order; H or OH if unused. Where no end group is shown, it is not given here. Side-chain parts run from the residue outwards. [ ]: non-standard residue; d: D form. The star is where a group is joined. γGlu = O=C(O)[C@H](CCC(=O)[*:2])N[*:1]; HOOC(CH2)8CO = O=C(O)CCCCCCCCC(=O)*; Palmitoyl = CCCCCCCCCCCCCCCC(=O)*; Decanoyl = CCCCCCCCCC(=O)*; Aib = CC(C)(N)C(=O)O

The target of this assay is T1, human glucose-dependent insulinotropic …. Briefly: cell-based or functional assay.
For the molecule Palmitoyl-HADGTFISDYSTILDNLAARDFINWLIQTKITD [Compound no. 4], the “Efficacy GIPR” value is 96%. The figure for Decanoyl-HADGTFISDYSTILDNLAAKDFINWLIQTKITKNDWKHNITQ [Compound no. 3] is 76%; for B1 it is 77%; for B2 it is 107%. The figure for B3 is 108%.

On to B4, for which the “Efficacy GIPR” value was determined as 114%. The figure for B5 is 106%.
